Measured values: the domain aggregation screens of Martell et al. (2025)

Test: soluble fraction after stress (log2 fold change); higher = more stays soluble; pooled small domains, quantitative proteomics
Details: stress: 50 degC
How it was run: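 Quantitative proteomics served as the high-throughput read-out for pooled custom libraries of small protein domains. Each was stressed at 50°C. Aggregation propensity is expressed as the base-two log fold change in soluble protein after stress. A higher value means a larger share of the protein remains in solution.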

| Sequence | soluble fraction (log2) |
| --- | --- |
| HMGFEALRSRHRITAREMEVLQHMLAGRSNAEIGHTLGLSERTVKTHITSIFNKLGVDSRAQLGYMLK | -0.498 |
| HMTELPLTPRSKRILEMSALEARRLNHSYIGTEHLLMAIIRDGDGVAAKILESLGVNLPNFYTDTVRSIE | -0.121 |
| HMAELAKAKLDAAVQVALLKAGALDTDYLAYKLQGMDGVALDDKGSLTGWDTTLETLKSQYPTQFA | -0.302 |
| HMGQSKNERMLELVELLNKASRSYYQDAQEIMSNYEYDRLYDELQNLEKELGITLSNSPTVN | -0.0536 |
| HMKVQEVDYGTFLTMVDEGKVNQVDIENSKQITFNTKGDKNKVYITGQVNDPELVNRLYKAGVEFSQEIP | 0.0729 |
| HMGHTVHAVPEAADRQRLDVFVGNLHPTISRAYIQKLSKEDQILVNGKPEKAGFKLRTGHSVSVPDMSE | 0.0769 |
| HMEFGEVLAQLRQKRHISQAELGRAIFVSGGTISNYEKGVHFPDVEKLLLLADYFNVTTDYLLGRT | -2.04 |
| HMRQMSEELQSAKEALEDRRTQEKAVLLLMEHRNISNDEAHRLLRKLAMDQGKRLPEVARALVSMAGVL | 0.132 |
| HMPGRPSRISDAVKDQIDHDLRKNPRDLGYSQNLWDGKLLSHHLKERYQITLGIRQAQRLFHQLGFRQR | -0.0323 |
| HMDIFLPDVKGYDLIPSFRRHLPDIDVIAMTGYNTRALESAVRQQDVLFYMIKPFEASQLKEILEHLVK | -0.221 |
| HMAGTRVWSENGQLYVTAAVSGRANVYNVLGKLNRSLTFSAGETKSVSVPAGIYVVSLNNGKAYKVAV | -1.67 |
| HMILKNVTSDLANKRLDKVASILFQTYSRTQIKKWILEGRVLVNGEISNPKDHVHENDEIEINPI | -1.04 |
| HMKTTKESLLEYIQREVFTDSIHKEGLSTNEIADAFQIQRSNVSSLLNTLVKEGKLEKTTGRPVLYRIPEK | 0.0655 |
| HMISKQQRQALILDIIQKQSITSQEALLTELQRHHVMTTQTTVSRDIRALGIVRIKDVNGELSYQQLQ | -2.5 |
| HMAYSEEERNLIRSRLKDVAAALFKEKGIRDTNIDEIYTPVGISKTFFYSFFPSKAVLAIAIMK | 0.0382 |
| HMSNMESLIGREATVIEMIPAEDVGRVKIDGDEWQAVLAREDDNEPRRDIQVGEKVIIVSYDSIILTVKTK | 0.0115 |
| HMDNEIIEEEKITTLMITHNMRDAIKYGNRLIMLNEGRVIFDISGEEKKNLTVQELLEKFEK | -0.118 |
| HMEDTSTLSIKHKIKELINQESPQAILSDDKLVELLAAQGIKIARRTIAKYRETMNIPTSAERKRQKRPP | 0.479 |
| HMDVNLSIRSGETIGIIGSTGSAKSTLVQLIPRLYDTTEGEVLVGGVNVKNYDLEALRNSVAMVLQKN | -0.066 |

| Sequence | soluble fraction (log2) |
| --- | --- |
| HMVYFDDEELDRFAGRAADSYTSDETDEFRDVMLTLLPADVMPWTQSIEMRGILLPEQLRDELLML | -0.764 |
| HMSQSYHLADRGQSLGTLDYQAVLVGLATGRLSPDTLSWQEGEAGWVALRQRPEFASGVSAVASL | 0.0116 |
| HMLADRANMAPAALRQIMTAIDGGNVTPKQIESATGMAHATVARALRKMLDDGLIANDGKGRYTVLT | -0.0609 |
| HMKWGDTPTVEVPNLIGMKKKDLQTQLVDLKLDISGDGEKVIKQSPEAGAKVKEGSKIRIYFG | -0.0661 |
| HMTATKDLPFSTFITEVEKGNITSVDIKGNQIEGTFSNGAKFKTYSPNYPNLVERLADKGVAISAGPS | 0.047 |
| HMENVALYIRLKSMASVYDDVHGYNIEWIKSMIGLSIDIEKLRTVLEDVSWITKVEEDVYSFSKNAKPFE | -4.31 |
| HMGEVEVPDLVGIEAIQAKTLLFNSDFLIKEFYDYDPTQPIGVVIRQAPEAGTTQTIGDSVTITINRA | -0.116 |
| HMTETNSVTINERLTLYRRSRSGRWQARVKLNTGEWHRFSTGTADFEKAKESAHRELHNVGFRAENNLPQ | -0.598 |
| HMRGIPEEVADVAIQWVARLDSNEISDADRAAFFAWLDASPINRWAYNDISESWAKLSILNEMGH | -1.6 |
| HMGKELTVPDVVGQNYVSAQEKLIAGGFQVEVADSVYDSRYGRGVVVDQNPHKDTRVKPGRLIYVTVNA | -0.0999 |
| HMVYFAKNIRHLRRLRGMSQELLAAELDITRARLGAYEESRSEPPLHLLIKISEFFKLPVDIIVKNDLTKS | -3.66 |
| HMARRLELEDIPVDEVLFTASRNLVDAIEVMDPSRQAPMIQPWLKQALEWAVGALGFSKEDAVATLTSD | -0.0273 |
| HMSNFGERLRALRQDRQMTLQQASKVTGVAQSTLSKMENNQLSPTFNLMQKLAIGLGIDMPQLFAPVK | -0.108 |
| HMSPLALLTPRELDILRAMTAGASNKEIARQFAIAETTVKIHVQHILRKLDVTTRVHAAVMASESGL | -2.66 |
| HMTVKNFNDLPGFKNENLAELKAMGITTISELAEALNDGGKIKEIIKNLSGVGPKTAEKWKDAIG | ≥ 0.62 |
| HMESAEQTGEELAARVNVLQTVSQALARELGREAAVEELADKMKMTVDEVKDIMKMAMDAMSM | 0.168 |
| HMAVFSKKQIFDTAFALFESKGLEAITARNLGKALSSSPAPIYAHYSSITELKNELISVAKDR | -2.25 |
| HMSDAVQLGLRLRAARERRGLSQQAVADALGLPRTAVTNMESGNRAVSTLELTKLAALYGQSTAFFLSP | -0.1 |
| HMYSIDNPPDWLKNLPKGAIRIGVEVFNQVLSKADDEDRARMAAWSAIKAKYEKADDGQWQPKAA | -0.0798 |
